Positions count from the first letter of the chain named. Blank lines part the entries; values can stand above or below the binder they belong to.
Columns and labels:
[1] = molecular target: T1, C8 acylated human ghrelin (1-28) (human, n-octanoyl group on the serine at position three (Ser3)); assay: KinExA solution equilibrium; constant Fab, ghrelin titrated, free Fab captured on biotin-C8-ghrelin streptavidin beads
T1 construct: 28-residue peptide hormone; In the first KinExA experiment a biotinylated form was on the beads and the unlabelled peptide was titrated in solution; also called Human C8 ghrelin; human C8 acylated ghrelin (1-28)
T1 sequence (peptide, as listed by the source): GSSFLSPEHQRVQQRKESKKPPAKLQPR
Description: The KinExA 3000 instrument, manufactured by Sapidyne, is used to measure binding kinetics. Briefly, streptavidin is covalently coupled to azlactone beads. Biotinylated C8 acylated human ghrelin (1-28) is subsequently bound to these streptavidin beads. The binding of free anti-ghrelin Fab to the beads is detected on the instrument.
To measure Kds, individual tubes containing a constant concentration of 20-100 pM of Fab with decreasing serially diluted C8 acylated human ghrelin (1-28) are incubated for 18 h at 20° C. in 0.1% BSA, PBS. […] For example, clone 4a1 is used at a constant concentration of 20 pM and individual tubes are incubated with 0-20 nM of ghrelin. Incubations for other Fabs are set in a similar manner. After incubation, free Fab in each equilibrated sample is determined on the KinExA 3000 instrument according to the manufacturer's instructions. Kd values are determined using the KinExA 3000 software.

[2] = molecular target: T1, C8 acylated human ghrelin (1-28); assay: BIAcore SPR; Mab amine-coupled to CM5 chip, ghrelin injected, n = 2
Description: (§1) The affinity (Kd) of humanized C2 anti-ghrelin Mabs is measured using a BIAcore® 2000 instrument containing a CM5 sensor chip. The BIAcore® utilizes the optical properties of surface plasmon resonance to detect alterations in protein concentration of interacting molecules within a dextran biosensor matrix. Except where noted, all reagents and materials are purchased from BIAcore® AB (Uppsala, Sweden). All measurements are performed at about 25° C. All samples containing either rat or human ghrelin (full length, C8- or C10-acylated, or desacylated) and anti-ghrelin Fab or Mab are diluted in HBS-EP buffer (150 mM sodium chloride, 3 mM EDTA, 0.005% (w/v) surfactant P-20, and 10 mM HEPES, pH 7.4). A capture antibody, goat anti-mouse kappa (Southern Biotechnology, Inc), or goat anti-mouse Fc gamma (Jackson ImmunoResearch), is immobilized onto flow cells using amine-coupling chemistry. Flow cells (1-4) are activated for 7 minutes with a 1:1 mixture of 0.1 M N-hydroxysuccinimide and 0.1 M 3-(N,N-dimethylamino)propyl-N-ethylcarbodiimide at a flow rate of 10 μl/min. The capture antibody, for example goat anti-mouse kappa, is diluted to 30 μg/mL in 10 mM sodium acetate, pH 4.5, and manually injected over all four flow cells at a flow rate of 10 μL/min. The surface density is monitored, and additional capture antibody is injected as needed to each individual cell until all flow cells reach a surface density of 4500-5000 response units (RU). Surfaces are blocked with a seven minute injection of 1 M ethanolamine-HCl, pH 8.5(10 μL/min). To ensure complete removal of any noncovalently bound capture antibody, 15 μL of 10 mM glycine, pH 1.5, are injected twice. Running buffer for kinetic experiments is HBS-EP buffer (150 mM sodium chloride, 3 mM EDTA, 0.005% (w/v) surfactant P-20, and 10 mM HEPES, pH 7.4). For C2_{—}4A1, 5A1, and 7A1, the antibody is directly coupled to a CM5 chip using the amine-coupling chemistry described above, aiming for a surface density of between 800-1000 RU.
(§2) Collection of kinetic binding data is performed at maximum flow rate (100 μL/min) and a low surface density to minimize mass transport effects.

[3] = molecular target: T2, Rat C8 ghrelin (28 amino acids, C8-acylated) (rat, UniProt Q9QYH7 24-51, C8-acylated (n-octanoyl; octanoylated at Ser3 as told for rat ghrelin in paragraph 40)); assay: as above
T2 construct: mature; the assay used the 28-residue peptide; also called C8-acylated rat ghrelin
T2 peptide (looked up): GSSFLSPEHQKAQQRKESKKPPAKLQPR
Description: as §1, §2

[4] = molecular target: T1, C8 acylated human ghrelin (1-28); assay: BIAcore SPR; Mab captured by goat anti-mouse kappa or anti-mouse Fc gamma, ghrelin injected, n = 11
Description: as §1, with “RU. […]” for “RU.”

Human C10 ghrelin (1-28) [5] = molecular target: T3, Human C10 ghrelin (1-28) (human, n-decanoyl group on Ser3 (C10-acylated)); assay: BIAcore SPR; Mab captured by goat anti-mouse kappa or anti-mouse Fc gamma, ghrelin injected, n = 6
T3 construct: also called decanoyl ghrelin (1-28)
Description: as §1, with “RU. […]” for “RU.”

[6] = molecular target: T1, C8 acylated human ghrelin (1-28); assay: KinExA solution equilibrium; C8 ghrelin coupled to azlactone beads, n-curve analysis, n = 2
Description: (§3) Briefly, 10 μg human C8 acylated ghrelin (1-28) is covalently coupled to 50 mg azlactone beads (Sapidyne). […] For example, anti-ghrelin C2 murine Fab is used at a constant concentration of either 60, 600, or 6000 pM, and individual tubes are incubated with 0-60, 0-100, or 0-1000 nM of ghrelin, respectively. After the incubation, free Fab or Mab in each equilibrated sample is determined on the KinExA 3000 instrument according to the manufacturer's instructions. Kd values are assessed using the KinEkA 3000 n-curve analysis software.

[7] = molecular target: T2, Rat C8 ghrelin (28 amino acids, …); assay: BIAcore SPR; Mab captured by goat anti-mouse kappa or anti-mouse Fc gamma, ghrelin injected, n = 7
Description: as §1, with “RU. […]” for “RU.”

[8] = molecular target: T2, Rat C8 ghrelin (28 amino acids, …); assay: BIAcore SPR; Fab captured by goat anti-mouse kappa, ghrelin injected, n = 5
Description: as §1, with “RU. […]” for “RU.”

[9] = molecular target: T1, C8 acylated human ghrelin (1-28); assay: BIAcore SPR; Fab captured by goat anti-mouse kappa, ghrelin injected, n = 8
Description: as §1, with “RU. […]” for “RU.”

Human C10 ghrelin (1-28) [10] = molecular target: T3, Human C10 ghrelin (1-28); assay: BIAcore SPR; Fab captured by goat anti-mouse kappa, ghrelin injected, n = 3
Description: as §1, with “RU. […]” for “RU.”

[11] = molecular target: T1, C8 acylated human ghrelin (1-28); assay: KinExA solution equilibrium; C8 ghrelin coupled to azlactone beads, n-curve analysis, n = 3
Description: as §3

B1: Humanized, affinity matured C2 anti-ghrelin Fab 7b2 (Fab, V domains shown)
VH: QVQLVQSGAEVKKPGASVKVSCKATGYIFTGYWIEWVRQAPGQGLEWMGDILPGSGSPNYNEKFKGRVTMTTDTSTSTAYMELRSLRSDDTAVYYCARYPIFRLRTERIAEWGQGTLVTVSS
VL: DIVMTQSPDSLAVSLGERATINCRASKSVSLLGYSYMHWYQQKPGQPPKLLIYFASNLESGVPDRFSGSGSGTDFTLTISSLQAEDVAVYYCQHSIEEPYTFGQGTKLEIK
notes: Fab; The constant domains are not described
Kd [1]: 0.0253 nM

B2: Mab C2_7A1 (human VH/VL with rat Fc chimera) (antibody, V domains shown)
VH: B1 VH with L104P, E111Y
VL: B1 VL with I96V
notes: Humanized VH/VL with rat Fc; The Mab is tied to the Fab 7a1 variable regions by its clone name only
Kd [2]: 0.012 nM | koff [2]: 0.00013 s⁻¹ | kon [2]: 1e+07 M⁻¹ s⁻¹

B4: Humanized, affinity matured C2 anti-ghrelin Fab 5a1 (Fab, V domains shown)
VH: B1 VH
VL: B1 VL with L32S
notes: Fab; The constant domains are not described for this clone; also called Fab C2-5a1
Kd [1]: 0.001 nM

B5: Mab C2_5A1 (humanized, affinity matured VH/VL (Fab C2-5a1 sequences) with rat Fc chimeric C2 anti-ghrelin antibody) (antibody, V domains shown)
VH: B1 VH
VL: B1 VL with L32S
notes: Humanized VH/VL with rat Fc; also called C2-5a1 antibody
Kd [3]: 0.02 nM | koff [3]: 0.00012 s⁻¹ | kon [3]: 6.6e+06 M⁻¹ s⁻¹ | Kd [2]: 0.013 nM | koff [2]: 0.00012 s⁻¹ | kon [2]: 8.6e+06 M⁻¹ s⁻¹

B6: C2 chimeric Fab (heavy and light chain variable regions of C2 murine Fab 1111 fused to human CH1 and CL domains) (Fab, V domains shown)
VH: EIQLQQSGAELMKPGASVKLSCKATGYIFTGYWIEWVKQRPGHGLEWIGEILPGSGSTNYNEKFKGKATFTADTSSNTANMQLSSLTTEDSAIYYCARYPQFRLRRERIAYWGQGTLVTVSV
VL: DLVLTQSPASLAVSLGQRATISCRASKSVSTSGYSYMHWYQQKPGQPPKLLIYLASNLESGVPARFSGSGSGTDFTLNIHPVEEEDAATYYCQHSRELPYTFGAGTKLELKR
Kd [1]: 1.1 nM

B9: C2 murine Fab 1111 (Fab, V domains shown)
VH: B6 VH
VL: B6 VL
notes: also called Anti-ghrelin C2 Fab (Fab1111)
Kd [8]: 1.23 nM | koff [8]: 0.0016 s⁻¹ | kon [8]: 1.4e+06 M⁻¹ s⁻¹ | Kd [9]: 0.953 nM | koff [9]: 0.0016 s⁻¹ | kon [9]: 1.7e+06 M⁻¹ s⁻¹ | Kd (Human C10 ghrelin (1-28) [10]): 4.55 nM | koff (Human C10 ghrelin (1-28) [10]): 0.0088 s⁻¹ | kon (Human C10 ghrelin (1-28) [10]): 2.1e+06 M⁻¹ s⁻¹ | Kd [11]: 1.03 nM

Results, then the binder that gave them:

Kd [1]: 0.0042 nM
B3: Humanized, affinity matured C2 anti-ghrelin Fab 7a1 (Fab, V domains shown)
VH: B1 VH with L104P, E111Y
VL: B1 VL with I96V
notes: Fab; The constant domains are not described for this clone

Kd [3]: 0.687 nM | koff [3]: 0.0019 s⁻¹ | kon [3]: 3.3e+06 M⁻¹ s⁻¹ | Kd [2]: 0.363 nM | koff [2]: 0.0028 s⁻¹ | kon [2]: 7.4e+06 M⁻¹ s⁻¹
B7: Mab C2 (murine VH/VL Fab 1111 sequences with rat Fc chimera) (antibody, V domains shown)
VH: B6 VH
VL: B6 VL
notes: Chimera with rat Fc

Kd [4]: 0.779 nM | koff [4]: 0.0015 s⁻¹ | kon [4]: 2.4e+06 M⁻¹ s⁻¹ | Kd (Human C10 ghrelin (1-28) [5]): 4.1 nM | koff (Human C10 ghrelin (1-28) [5]): 0.0092 s⁻¹ | kon (Human C10 ghrelin (1-28) [5]): 1.9e+06 M⁻¹ s⁻¹ | Kd [6]: 1.44 nM | Kd [7]: 2.6 nM | koff [7]: 0.0018 s⁻¹ | kon [7]: 800000 M⁻¹ s⁻¹
B8: Mab C2 (full murine sequence, i.e., Fab 1111 VH/VL and murine Fc) (antibody, V domains shown)
VH: B6 VH
VL: B6 VL
notes: Full-length murine antibody with a kappa light chain (it was captured with anti-mouse kappa); also called Anti-ghrelin C2 Mab
